Data as given in publication PMC8937303 (Molecular Cell, 2022).

Assays:
GST-SHP2 = target: T1, GST-SHP2 (UniProt Q06124 1-593); experiment: pull-down
T1 sequence (looked up): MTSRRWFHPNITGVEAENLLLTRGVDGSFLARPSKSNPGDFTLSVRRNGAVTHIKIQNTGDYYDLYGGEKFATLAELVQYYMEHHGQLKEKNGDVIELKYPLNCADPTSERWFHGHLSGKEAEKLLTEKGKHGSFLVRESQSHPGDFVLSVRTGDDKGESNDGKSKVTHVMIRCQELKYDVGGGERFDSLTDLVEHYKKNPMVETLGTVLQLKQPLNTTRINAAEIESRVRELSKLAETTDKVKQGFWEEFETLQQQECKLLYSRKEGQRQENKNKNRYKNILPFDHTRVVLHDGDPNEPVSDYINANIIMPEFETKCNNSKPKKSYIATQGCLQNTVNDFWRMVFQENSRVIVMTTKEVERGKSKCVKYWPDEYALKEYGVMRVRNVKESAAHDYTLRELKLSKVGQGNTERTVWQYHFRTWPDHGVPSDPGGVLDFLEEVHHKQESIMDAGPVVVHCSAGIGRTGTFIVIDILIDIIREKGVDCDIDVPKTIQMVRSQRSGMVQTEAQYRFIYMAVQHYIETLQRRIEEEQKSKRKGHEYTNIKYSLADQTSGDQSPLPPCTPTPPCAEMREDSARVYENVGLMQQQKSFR

SHP2_(2SH2) [1] = target: T2, SHP2_(2SH2) (UniProt Q06124 1-221); experiment: pull-down
T2 sequence (looked up): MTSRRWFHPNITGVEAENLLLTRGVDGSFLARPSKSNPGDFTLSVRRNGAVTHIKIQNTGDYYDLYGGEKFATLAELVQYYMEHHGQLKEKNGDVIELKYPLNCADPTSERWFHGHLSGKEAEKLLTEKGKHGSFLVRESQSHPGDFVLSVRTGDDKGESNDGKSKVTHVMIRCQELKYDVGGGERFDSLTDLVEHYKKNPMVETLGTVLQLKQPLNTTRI

SHP2_(2SH2) [2] = target: T2, SHP2_(2SH2); experiment: ITC

B1: pFGFR2_(Cyto) (domain or fragment, UniProt P21802 400-821, looked up)
chain: MKNTTKKPDFSSQPAVHKLTKRIPLRRQVTVSAESSSSMNSNTPLVRITTRLSSTADTPMLAGVSEYELPEDPKWEFPRDKLTLGKPLGEGCFGQVVMAEAVGIDKDKPKEAVTVAVKMLKDDATEKDLSDLVSEMEMMKMIGKHKNIINLLGACTQDGPLYVIVEYASKGNLREYLRARRPPGMEYSYDINRVPEEQMTFKDLVSCTYQLARGMEYLASQKCIHRDLAARNVLVTENNVMKIADFGLARDINNIDYYKKTTNGRLPVKWMAPEALFDRVYTHQSDVWSFGVLMWEIFTLGGSPYPGIPVEELFKLLKEGHRMDKPANCTNELYMMMRDCWHAVPSQRPTFKQLVEDLDRILTLTTNEEYLDLSQPLEQYSPSYPDTRSSCSSGDDSVFSPDPMPYEPCLPQYPHINGSVKT
modifications: tyrosine phosphorylated in vitro (sites not printed for the preparation)
- binding result (GST-SHP2): binds

B2: GST-pC58 (domain or fragment, UniProt P21802 763-821, looked up)
chain: LTTNEEYLDLSQPLEQYSPSYPDTRSSCSSGDDSVFSPDPMPYEPCLPQYPHINGSVKT
modifications: tyrosine phosphorylated in vitro
- binding result (SHP2_(2SH2) [1]): binds

B3: pFGFR2C58 (domain or fragment, UniProt P21802 764-821, looked up)
chain: TTNEEYLDLSQPLEQYSPSYPDTRSSCSSGDDSVFSPDPMPYEPCLPQYPHINGSVKT
modifications: tyrosine phosphorylated in vitro (sites not printed for the preparation)
- Kd (SHP2_(2SH2) [2]): ~8 µM
- stoichiometry N (SHP2_(2SH2) [2]): 1
